Substrate: C[C@H](N)C(=O)N1CCC[C@H]1C(=O)Nc1ccc2c(C(F)(F)F)cc(=O)oc2c1
Test: purified protein, by the assay type
Conditions: other: substrate of DP-IV assay
Description: All compounds were tested in vitro against pure human DP-IV (purchased from M & E, Copenhagen, Denmark). […] Ki values were determined using Dixon plots.

B1: pure human DP-IV (Homo sapiens) (protein)
chain: MKTPWKVLLGLLGAAALVTIITVPVVLLNKGTDDATADSRKTYTLTDYLKNTYRLKLYSLRWISDHEYLYKQENNILVFNAEYGNSSVFLENSTFDEFGHSINDYSISPDGQFILLEYNYVKQWRHSYTASYDIYDLNKRQLITEERIPNNTQWVTWSPVGHKLAYVWNNDIYVKIEPNLPSYRITWTGKEDIIYNGITDWVYEEEVFSAYSALWWSPNGTFLAYAQFNDTEVPLIEYSFYSDESLQYPKTVRVPYPKAGAVNPTVKFFVVNTDSLSSVTNATSIQITAPASMLIGDHYLCDVTWATQERISLQWLRRIQNYSVMDICDYDESSGRWNCLVARQHIEMSTTGWVGRFRPSEPHFTLDGNSFYKIISNEEGYRHICYFQIDKKDCTFITKGTWEVIGIEALTSDYLYYISNEYKGMPGGRNLYKIQLSDYTKVTCLSCELNPERCQYYSVSFSKEAKYYQLRCSGPGLPLYTLHSSVNDKGLRVLEDNSALDKMLQNVQMPSKKLDFIILNETKFWYQMILPPHFDKSKKYPLLLDVYAGPCSQKADTVFRLNWATYLASTENIIVASFDGRGSGYQGDKIMHAINRRLGTFEVEDQIEAARQFSKMGFVDNKRIAIWGWSYGGYVTSMVLGSGSGVFKCGIAVAPVSRWEYYDSVYTERYMGLPTPEDNLDHYRNSTVMSRAENFKQVEYLLIHGTADDNVHFQQSAQISKALVDVGVDFQAMWYTDEDHGIASSTAHQHIYTHMSHFIKQCFSLP
Km: 0.8 µM

— patent US5939560A, “Inhibitors of DP-mediated processes, compositions and therapeutic methods thereof” (Ferring B.V., priority 1993, dated 1999)
